From patent US20100075897A1, “METHOD FOR S[…] BIOACTIVE PEPTIDES AND APPLICATION THEREOF” (JINAN UNIVERSITY, priority 2008, published 2010) come the findings set out here.

Ends that are not written are not given here.

In test [1] the target is T1, human serum albumin (human, UniProt P02768 25-609).
T1 construct: Bought protein; coated on plates (ELISA) or coupled to a CM5 chip (SPR); also called HSA; human albumin
Nature of the test: phage ELISA on plate-coated HSA, sample row, dilution column 3 of 12.

In test [2] the target is T1, human serum albumin. The experiment in a line: phage ELISA on plate-coated HSA, sample row, dilution column 1 of 12. A general note: In an ELISA, binding on a coated surface is turned into a signal by an enzyme label.
In test [3] the target is T1, human serum albumin. Nature of the test: phage ELISA on plate-coated HSA, Table 3 absorbance (sample minus blank), dilution column 2 of 12.
Test [4] concerns the target T1, human serum albumin. The experiment in a line: phage ELISA on plate-coated HSA, Table 3 absorbance (sample minus blank), dilution column 7 of 12.
Test [5] deals with T1, human serum albumin. The experiment in a line: phage ELISA on plate-coated HSA, sample row, dilution column 2 of 12.
Test [6] has as its target T1, human serum albumin. The experiment in a line: phage ELISA on plate-coated HSA, Table 3 absorbance (sample minus blank), dilution column 1 of 12.
In test [7] the target is T1, human serum albumin. The experiment in a line: SPR (BIAcore 3000), HSA on CM5 chip, polypeptide injected, 1:1 model. The procedure: Signal of conjugated channel subtracted by that of unconjugated channel of injected solution was calculated as the amount of bound peptides during a defined period, as shown in FIG. 4. PBS buffer containing 0.05% Tween-20 was used for dilution of all samples. SPR curve was evaluated by BIAcore™ kinetics evaluation software (Version 4.1). […] Kd was calculated from binding rate (kₒₙ) and dissociating rate (koff), i.e. dissociation constant.
For orientation: SPR reads the build-up and loss of mass on a sensor chip optically.

The target of test [8] is T1, human serum albumin. The experiment in a line: phage ELISA on plate-coated HSA, Table 3 absorbance (sample minus blank), dilution column 6 of 12.

T1 sequence (P02768 25-609 limits assumed): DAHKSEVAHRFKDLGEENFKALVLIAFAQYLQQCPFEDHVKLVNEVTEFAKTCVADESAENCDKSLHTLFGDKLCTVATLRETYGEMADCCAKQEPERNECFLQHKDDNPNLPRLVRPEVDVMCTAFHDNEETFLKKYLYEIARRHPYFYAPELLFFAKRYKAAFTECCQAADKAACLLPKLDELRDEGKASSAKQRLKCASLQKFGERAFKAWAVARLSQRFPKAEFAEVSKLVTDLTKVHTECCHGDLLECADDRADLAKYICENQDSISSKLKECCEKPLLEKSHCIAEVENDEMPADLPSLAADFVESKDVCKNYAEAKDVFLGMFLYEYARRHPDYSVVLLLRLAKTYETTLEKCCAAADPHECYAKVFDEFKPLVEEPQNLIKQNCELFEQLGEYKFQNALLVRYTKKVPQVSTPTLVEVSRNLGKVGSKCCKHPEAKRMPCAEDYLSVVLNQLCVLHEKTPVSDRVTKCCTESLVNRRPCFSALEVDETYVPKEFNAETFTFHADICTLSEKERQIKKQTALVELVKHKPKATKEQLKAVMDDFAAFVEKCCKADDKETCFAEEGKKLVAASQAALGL

B1: Phage ID NO. 3 (M13 phage displaying the peptide of SEQ ID NO. 3, DICLPRWGCLWE) (peptide)
peptide: DICLPRWGCLWE
modifications: not fully specified (bridges); cysteine pairing not given here; also: displayed on M13 phage coat protein
notes: Tested as whole phage particles, not as free peptide; not shown: not described
With B1, the “absorbance at 405 nm” value in test [1] stood at 0.1.

B2: Phage ID NO. 4 (M13 phage displaying the peptide of SEQ ID NO. 4, NICLPRWGCLWD) (peptide)
peptide: NICLPRWGCLWD
modifications: not fully specified (bridges); cysteine pairing not given here; also: displayed on M13 phage coat protein
notes: as for B1
In the case of B2, the results for the “absorbance at 405 nm” value in test [2] and in test [3] were 0.08 and 0.04, respectively.

B3: Phage ID NO. 7 (M13 phage displaying the peptide of SEQ ID NO. 7, SLFRHQHATPQI) (peptide)
peptide: SLFRHQHATPQI
modifications: also: displayed on M13 phage coat protein
notes: as for B1
In the case of B3, the “absorbance at 405 nm” value in test [2] was 0.08; in test [4], 0.1; in test [5] it was 0.08.

B4: Phage ID NO. 1 (M13 phage displaying the peptide of SEQ ID NO. 1, NVCLPKWGCLWE) (peptide)
peptide: NVCLPKWGCLWE
modifications: not fully specified (bridges); cysteine pairing not given here; also: displayed on M13 phage coat protein
notes: as for B1
As to B4, the “absorbance at 405 nm” value came out at 0.04 in test [6] and 0.09 in test [5].

B5: DP5.1 fusion polypeptide (peptide)
peptide: LPWHLKYREPPR
modifications: not fully specified; also: fusion polypeptide ABP-LK-GLP, linker and GLP-1 part not given here
notes: also called ABP-LK-GLP; not shown: rest of DP5.1 (any N-terminal Pro, linker, GLP-1 part) is printed nowhere
By Kd is commonly meant the constant that tells how readily two partners part at equilibrium. A higher Kd goes with a looser complex. Consider B5, for which the Kd in test [7] was 4.6 µM.

B6: Phage ID NO. 5 (M13 phage displaying the peptide of SEQ ID NO. 5, LPWHLKYREPPR) (peptide)
peptide: LPWHLKYREPPR
modifications: also: displayed on M13 phage coat protein
notes: as for B1
As for B6, in test [8], the “absorbance at 405 nm” value is 0.08.
